These results are taken from patent US20130115170A1.

Where two headings read alike, the source gives them in different places.

For experiment [1], the target named is T1, cholera toxin B subunit (Vibrio cholerae), P01556.
T1 chain: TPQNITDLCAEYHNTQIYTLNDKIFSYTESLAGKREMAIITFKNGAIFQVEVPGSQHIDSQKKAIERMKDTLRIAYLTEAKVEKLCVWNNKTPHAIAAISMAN
The experiment is described as follows: solid-phase ELISA, competition: peptide inhibits CTB binding to GM1.

The target in experiment [2] is T1, cholera toxin B subunit (Vibrio …). Put plainly: solid-phase ELISA, inhibition of CTB binding to GM1, peptide at its IC50 for GM1.
Experiment [3] has the same target. Put plainly: solid-phase ELISA, inhibition of CTB binding to Lipid A, peptide at 100 pmol/mL.
Experiment [4] shares this target. The experiment is described as follows: solid-phase ELISA, inhibition of CTB binding to GD1b, peptide at 100 pmol/mL.
For experiment [5] the target is unchanged. Put plainly: solid-phase ELISA, inhibition of CTB binding to F-GM1, peptide at 100 pmol/mL.
The target is the same in experiment [6]. Put plainly: solid-phase ELISA, inhibition of CTB binding to LOSGM1, peptide at 100 pmol/mL.
For experiment [7] the target is unchanged.

Take FPAWFTKLYPRT (modifications not checked) [PGM1-4]: in experiment [1], the IC50 stood at 77.4 nM. The molecule further returned an inhibition percent in experiment [2] of 50%.

Consider VSWKTWFPNLAV (modifications not checked) [PGM1-1], for which the half-maximal inhibitory concentration (IC50) in experiment [1] turned out to be 38 nM. This molecule also showed an inhibition percent in experiment [2] of 50%.

For the molecule DASKALRSSGMP (modifications not checked) [PGM1-6], the inhibition percent in experiment [3], in experiment [4], in experiment [5], in experiment [6] and in experiment [7] was -0% throughout.

Molecule IPQVWRDWFKLP (modifications not checked) [PGM1-3] returned an IC50 in experiment [1] of 9.6 nM. This molecule registered an inhibition percent in experiment [2] of 50%.

Turning to QINTAKWWKTHF (modifications not checked) [PGM1-5], in experiment [1], the half-maximal inhibitory concentration (IC50) came out at 34.4 nM. The inhibition percent in experiment [2] is 50%.

For the molecule YSPFHKWFPSMH (modifications not checked) [PGM1-2], the IC50 in experiment [1] is 46.1 nM. Moreover, the inhibition percent in experiment [2] stood at 50%.
